{"source": "the supplement of paper PMC7877785", "experiment": "self-splicing fitness, log relative to wild type (ln ratio); higher = more splicing; Tetrahymena group I intron in knt gene, E. coli kanamycin selection, DiMSum; sequences stand for … in CUCUCU…GGAGGGAAAAGUUAUCAGGCAUGCACCUGGUAGCUAGUCUUUAAACCAAUAGAUUGCAUCGGUUUAAAAGGCAAGACCGUCAAAUUGCGGGAAAGGGGUCAACAGCCGUUCAGUACCAAGUCUCAGGGGAAACUUUGAGAUGGCCUUGCAAAGGGUAUGGUAAUAAGCUGACGGACAUGGUCCUAACCACGCAGCCAAGUCCUAAGUCAACAGAUCUUCUGUUGAUAUGGAUGCAGUUCACAGACUAAAUGUCGGUCGGGGAAGAUGUAUUCUUCUCAUAAGAUAUAGUCGGACCUCUCCUUAAUGGGAGCUAGCGGAUGAAGUGAUGCAACACUGGAGCCGCUGGGAACUAAUUUGUAUGCGAAAGUAUAUUGAUUAGUUUUGGAGUACUCGUGGUCG", "how_it_was_run": "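DiMSum derived fitness as the error-weighted combination of fold changes across replicates, kanamycin versus no kanamycin, normalised to wild type. E. coli BL21(DE3) held the library, which randomised all eight P1ex-region intron nucleotides within the knt kanamycin-resistance gene on pET-22b(+). Six replicate transformations grew overnight at 37°C or 30°C on LB agar with or without 25 μg/mL kanamycin, also containing 100 μg/mL carbenicillin, 50 μM IPTG and 0.2% rhamnose, and pooled colonies were amplicon-sequenced on an Illumina HiSeq 2500.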", "note": "± gives the uncertainty stated by the source.", "data": [{"sequence": "GAGAAGCAAUAUUACGCCAU", "values": [{"measurement": "self-splicing fitness (ln)", "setting": "30 °C", "value": "-2.68 ± 0.38"}, {"measurement": "self-splicing fitness (ln)", "setting": "37 °C", "value": "-1.87 ± 0.35"}]}, {"sequence": "AAGAAGCAAUAUUACGGGGU", "values": [{"measurement": "self-splicing fitness (ln)", "setting": "30 °C", "value": "-4.04 ± 0.29"}, {"measurement": "self-splicing fitness (ln)", "setting": "37 °C", "value": "-2.64 ± 0.2"}]}, {"sequence": "AGCAAGCAAUAUUACGGUAA", "values": [{"measurement": "self-splicing fitness (ln)", "setting": "30 °C", "value": "-2.53 ± 0.17"}, {"measurement": "self-splicing fitness (ln)", "setting": "37 °C", "value": "-1.38 ± 0.12"}]}, {"sequence": "AGCUAGCAAUAUUACGCGGC", "values": [{"measurement": "self-splicing fitness (ln)", "setting": "30 °C", "value": "-3.24 ± 0.32"}, {"measurement": "self-splicing fitness (ln)", "setting": "37 °C", "value": "-1.99 ± 0.38"}]}, {"sequence": "GUAAAGCAAUAUUACGUAUA", "values": [{"measurement": "self-splicing fitness (ln)", "setting": "30 °C", "value": "-1.53 ± 0.11"}, {"measurement": "self-splicing fitness (ln)", "setting": "37 °C", "value": "-0.524 ± 0.14"}]}, {"sequence": "AGAUAGCAAUAUUACGCAGU", "values": [{"measurement": "self-splicing fitness (ln)", "setting": "30 °C", "value": "-2.55 ± 0.17"}, {"measurement": "self-splicing fitness (ln)", "setting": "37 °C", "value": "-1.49 ± 0.17"}]}, {"sequence": "ACGGAGCAAUAUUACGUGAU", "values": [{"measurement": "self-splicing fitness (ln)", "setting": "30 °C", "value": "-3.47 ± 0.19"}, {"measurement": "self-splicing fitness (ln)", "setting": "37 °C", "value": "-1.32 ± 0.2"}]}, {"sequence": "GGAAAGCAAUAUUACGUACU", "values": [{"measurement": "self-splicing fitness (ln)", "setting": "30 °C", "value": "-1.25 ± 0.082"}, {"measurement": "self-splicing fitness (ln)", "setting": "37 °C", "value": "-0.834 ± 0.13"}]}, {"sequence": "ACAGAGCAAUAUUACGGUAG", "values": [{"measurement": "self-splicing fitness (ln)", "setting": "30 °C", "value": "-2.61 ± 0.13"}, {"measurement": "self-splicing fitness (ln)", "setting": "37 °C", "value": "-2.49 ± 0.18"}]}, {"sequence": "GAAGAGCAAUAUUACGUGUA", "values": [{"measurement": "self-splicing fitness (ln)", "setting": "30 °C", "value": "-2.66 ± 0.2"}, {"measurement": "self-splicing fitness (ln)", "setting": "37 °C", "value": "-2.76 ± 0.19"}]}, {"sequence": "AGGCAGCAAUAUUACGUAUC", "values": [{"measurement": "self-splicing fitness (ln)", "setting": "30 °C", "value": "-2.26 ± 0.16"}, {"measurement": "self-splicing fitness (ln)", "setting": "37 °C", "value": "-0.296 ± 0.12"}]}, {"sequence": "CCGGAGCAAUAUUACGUCUC", "values": [{"measurement": "self-splicing fitness (ln)", "setting": "30 °C", "value": "-3.22 ± 0.31"}, {"measurement": "self-splicing fitness (ln)", "setting": "37 °C", "value": "-2.69 ± 0.39"}]}, {"sequence": "AAAGAGCAAUAUUACGUCUU", "values": [{"measurement": "self-splicing fitness (ln)", "setting": "30 °C", "value": "-2.22 ± 0.091"}, {"measurement": "self-splicing fitness (ln)", "setting": "37 °C", "value": "-1.41 ± 0.1"}]}, {"sequence": "UCCGAGCAAUAUUACGAAAC", "values": [{"measurement": "self-splicing fitness (ln)", "setting": "30 °C", "value": "-2.59 ± 0.27"}, {"measurement": "self-splicing fitness (ln)", "setting": "37 °C", "value": "-1.62 ± 0.28"}]}, {"sequence": "UACCAGCAAUAUUACGAGGG", "values": [{"measurement": "self-splicing fitness (ln)", "setting": "30 °C", "value": "-3.38 ± 0.2"}, {"measurement": "self-splicing fitness (ln)", "setting": "37 °C", "value": "-1.3 ± 0.12"}]}, {"sequence": "GAGCAGCAAUAUUACGCGAU", "values": [{"measurement": "self-splicing fitness (ln)", "setting": "30 °C", "value": "-4.28 ± 0.33"}, {"measurement": "self-splicing fitness (ln)", "setting": "37 °C", "value": "-0.0586 ± 0.21"}]}, {"sequence": "GCACAGCAAUAUUACGGGUC", "values": [{"measurement": "self-splicing fitness (ln)", "setting": "30 °C", "value": "-3.81 ± 0.17"}, {"measurement": "self-splicing fitness (ln)", "setting": "37 °C", "value": "-1.62 ± 0.097"}]}, {"sequence": "UGAAAGCAAUAUUACGCUAG", "values": [{"measurement": "self-splicing fitness (ln)", "setting": "30 °C", "value": "-1.59 ± 0.15"}, {"measurement": "self-splicing fitness (ln)", "setting": "37 °C", "value": "0.503 ± 0.15"}]}, {"sequence": "GGAGAGCAAUAUUACGUUUG", "values": [{"measurement": "self-splicing fitness (ln)", "setting": "37 °C", "value": "-2.01 ± 0.38"}]}, {"sequence": "GAAAAGCAAUAUUACGAGUC", "values": [{"measurement": "self-splicing fitness (ln)", "setting": "30 °C", "value": "-2.16 ± 0.15"}, {"measurement": "self-splicing fitness (ln)", "setting": "37 °C", "value": "-0.233 ± 0.1"}]}, {"sequence": "GCCGAGCAAUAUUACGAGGC", "values": [{"measurement": "self-splicing fitness (ln)", "setting": "30 °C", "value": "-3.23 ± 0.35"}, {"measurement": "self-splicing fitness (ln)", "setting": "37 °C", "value": "-2.3 ± 0.37"}]}, {"sequence": "GAACAGCAAUAUUACGCCUA", "values": [{"measurement": "self-splicing fitness (ln)", "setting": "30 °C", "value": "-1.42 ± 0.086"}, {"measurement": "self-splicing fitness (ln)", "setting": "37 °C", "value": "-0.336 ± 0.087"}]}, {"sequence": "CUCGAGCAAUAUUACGAGCC", "values": [{"measurement": "self-splicing fitness (ln)", "setting": "37 °C", "value": "-1.68 ± 0.2"}]}, {"sequence": "CACUAGCAAUAUUACGGUCU", "values": [{"measurement": "self-splicing fitness (ln)", "setting": "30 °C", "value": "-1.55 ± 0.078"}, {"measurement": "self-splicing fitness (ln)", "setting": "37 °C", "value": "-0.782 ± 0.11"}]}, {"sequence": "CUCUAGCAAUAUUACGCUAA", "values": [{"measurement": "self-splicing fitness (ln)", "setting": "30 °C", "value": "-2.65 ± 0.35"}, {"measurement": "self-splicing fitness (ln)", "setting": "37 °C", "value": "-2.26 ± 0.4"}]}, {"sequence": "AACAAGCAAUAUUACGAUGU", "values": [{"measurement": "self-splicing fitness (ln)", "setting": "30 °C", "value": "-1.64 ± 0.077"}, {"measurement": "self-splicing fitness (ln)", "setting": "37 °C", "value": "-0.411 ± 0.094"}]}, {"sequence": "UCUAAGCAAUAUUACGCGCU", "values": [{"measurement": "self-splicing fitness (ln)", "setting": "30 °C", "value": "-4.34 ± 0.46"}, {"measurement": "self-splicing fitness (ln)", "setting": "37 °C", "value": "-1.6 ± 0.27"}]}, {"sequence": "AAGCAGCAAUAUUACGAAUU", "values": [{"measurement": "self-splicing fitness (ln)", "setting": "30 °C", "value": "-0.851 ± 0.069"}, {"measurement": "self-splicing fitness (ln)", "setting": "37 °C", "value": "0.12 ± 0.099"}]}, {"sequence": "GGUCAGCAAUAUUACGAGCA", "values": [{"measurement": "self-splicing fitness (ln)", "setting": "30 °C", "value": "-0.762 ± 0.32"}]}, {"sequence": "AUCUAGCAAUAUUACGAGUC", "values": [{"measurement": "self-splicing fitness (ln)", "setting": "30 °C", "value": "-4.11 ± 0.36"}, {"measurement": "self-splicing fitness (ln)", "setting": "37 °C", "value": "-2.19 ± 0.25"}]}, {"sequence": "AUCGAGCAAUAUUACGUCAU", "values": [{"measurement": "self-splicing fitness (ln)", "setting": "30 °C", "value": "-2.35 ± 0.14"}, {"measurement": "self-splicing fitness (ln)", "setting": "37 °C", "value": "-1.65 ± 0.15"}]}, {"sequence": "CUGGAGCAAUAUUACGAGUA", "values": [{"measurement": "self-splicing fitness (ln)", "setting": "30 °C", "value": "-2.08 ± 0.26"}, {"measurement": "self-splicing fitness (ln)", "setting": "37 °C", "value": "-3.21 ± 0.35"}]}, {"sequence": "GCCCAGCAAUAUUACGGGAC", "values": [{"measurement": "self-splicing fitness (ln)", "setting": "30 °C", "value": "-4.73 ± 0.31"}, {"measurement": "self-splicing fitness (ln)", "setting": "37 °C", "value": "-2.48 ± 0.14"}]}, {"sequence": "GACUAGCAAUAUUACGACAA", "values": [{"measurement": "self-splicing fitness (ln)", "setting": "30 °C", "value": "-0.896 ± 0.063"}, {"measurement": "self-splicing fitness (ln)", "setting": "37 °C", "value": "-0.0215 ± 0.069"}]}, {"sequence": "AUGGAGCAAUAUUACGGAAA", "values": [{"measurement": "self-splicing fitness (ln)", "setting": "30 °C", "value": "-3.4 ± 0.37"}, {"measurement": "self-splicing fitness (ln)", "setting": "37 °C", "value": "-2.35 ± 0.29"}]}, {"sequence": "AUGGAGCAAUAUUACGGCAG", "values": [{"measurement": "self-splicing fitness (ln)", "setting": "30 °C", "value": "-3.04 ± 0.34"}, {"measurement": "self-splicing fitness (ln)", "setting": "37 °C", "value": "-1.73 ± 0.5"}]}, {"sequence": "UCGUAGCAAUAUUACGACCU", "values": [{"measurement": "self-splicing fitness (ln)", "setting": "30 °C", "value": "-2.89 ± 0.22"}, {"measurement": "self-splicing fitness (ln)", "setting": "37 °C", "value": "-0.916 ± 0.15"}]}, {"sequence": "GUCCAGCAAUAUUACGAGCA", "values": [{"measurement": "self-splicing fitness (ln)", "setting": "30 °C", "value": "-0.945 ± 0.12"}, {"measurement": "self-splicing fitness (ln)", "setting": "37 °C", "value": "-1.08 ± 0.15"}]}]}
